According to the RNAGym collection of RNA variant scans (doi:10.7554/elife.80360):

B1: HDV Ribozyme (parent)
chain: GGCCGGCAUGGUCCCAGCCUCCUCGCUGGCGCCGGCUGGGCAACAUUCCGAGGGGACCGUCCCCUCGGUAAUGGCGAAUGGGACCCA

Variants of: B1
Experiment: self-cleavage, relative activity (ratio to wild type); higher = more cleavage; co-transcriptional
Variant GGCCGGCAUGGUCCCAGCCUCCUCGCUGGCGCCGGCUGGGCAACAUUCCGAGGGGACCGUCCCCUCGGUAAUGGCGUAUGGGACCAA has a self-cleavage of 0.831. With GGCCGGCAUGGUCCCAGCCUCCUCGCUGGCGCCGGCUGGGCAACAUUCCGAGGGGACCGUCCCCUCGGUAAUGGCGUAUGGGACCUA the self-cleavage was 0.729. GGCCGGCAUGGUCCCAGCCUCCUCGCUGGCGCCGGCUGGGCAACAUUCCGAGGGGACCGUCCCCUCGGUAAUGGCGUAUGCGACCCA showed a self-cleavage of 0.157. GGCCGGCAUGGUCCCAGCCUCCUCGCUGGCGCCGGCUGGGCAACAUUCCGAGGGGACCGUCCCCUCGGUAAUGGCGUAUGGCACCCA showed a self-cleavage of 0.208. For GGCCGGCAUGGUCCCAGCCUCCUCGCUGGCGCCGGCUGGGCAACAUUCCGAGGGGACCGUCCCCUCGGUAAUGGCGACUGGGUCCCA, the self-cleavage was 0.166. For GGCCGGCAUGGUCCCAGCCUCCUCGCUGGCGCCGGCUGGGCAACAUUCCGAGGGGACCGUCCCCUCGGUAAUGGCGACUGGGACGCA, the self-cleavage was 0.0852. Variant GGCCGGCAUGGUCCCAGCCUCCUCGCUGGCGCCGGCUGGGCAACAUUCCGAGGGGACCGUCCCCUCGGUAAUGGCGACUGGGACCAA has a self-cleavage of 0.192. With GGCCGGCAUGGUCCCAGCCUCCUCGCUGGCGCCGGCUGGGCAACAUUCCGAGGGGACCGUCCCCUCGGUAAUGGCGACUGGGACCGA the self-cleavage was 0.14. GGCCGGCAUGGUCCCAGCCUCCUCGCUGGCGCCGGCUGGGCAACAUUCCGAGGGGACCGUCCCCUCGGUAAUGGCGACUGGGACCUA showed a self-cleavage of 0.225. With GGCCGGCAUGGUCCCAGCCUCCUCGCUGGCGCCGGCUGGGCAACAUUCCGAGGGGACCGUCCCCUCGGUAAUGGCGACUAGGACCCA the self-cleavage was 0.174. With GGCCGGCAUGGUCCCAGCCUCCUCGCUGGCGCCGGCUGGGCAACAUUCCGAGGGGACCGUCCCCUCGGUAAUGGCGACUCGGACCCA the self-cleavage was 0.0514. Work on GGCCGGCAUGGUCCCAGCCUCCUCGCUGGCGCCGGCUGGGCAACAUUCCGAGGGGACCGUCCCCUCGGUAAUGGCGACUUGGACCCA yielded a self-cleavage of 0.174. With GGCCGGCAUGGUCCCAGCCUCCUCGCUGGCGCCGGCUGGGCAACAUUCCGAGGGGACCGUCCCCUCGGUAAUGGCGACUGGCACCCA the self-cleavage was 0.0831. GGCCGGCAUGGUCCCAGCCUCCUCGCUGGCGCCGGCUGGGCAACAUUCCGAGGGGACCGUCCCCUCGGUAAUGGCGAGUGGGACUCA showed a self-cleavage of 0.748. GGCCGGCAUGGUCCCAGCCUCCUCGCUGGCGCCGGCUGGGCAACAUUCCGAGGGGACCGUCCCCUCGGUAAUGGCGAGUCGGACCCA showed a self-cleavage of 0.329. Variant GGCCGGCAUGGUCCCAGCCUCCUCGCUGGCGCCGGCUGGGCAACAUUCCGAGGGGACCGUCCCCUCGGUAAUGGCGAGUGAGACCCA has a self-cleavage of 0.115. In the case of GGCCGGCAUGGUCCCAGCCUCCUCGCUGGCGCCGGCUGGGCAACAUUCCGAGGGGACCGUCCCCUCGGUAAUGGCGAGUGGAACCCA, the self-cleavage is reported as 0.365. Variant GGCCGGCAUGGUCCCAGCCUCCUCGCUGGCGCCGGCUGGGCAACAUUCCGAGGGGACCGUCCCCUCGGUAAUGGCGAGAGGGACCCA has a self-cleavage of 0.317. GGCCGGCAUGGUCCCAGCCUCCUCGCUGGCGCCGGCUGGGCAACAUUCCGAGGGGACCGUCCCCUCGGUAAUGGCGAUUGGGCCCCA showed a self-cleavage of 0.324. Work on GGCCGGCAUGGUCCCAGCCUCCUCGCUGGCGCCGGCUGGGCAACAUUCCGAGGGGACCGUCCCCUCGGUAAUGGCGAUUGGGAACCA yielded a self-cleavage of 0.185. Variant GGCCGGCAUGGUCCCAGCCUCCUCGCUGGCGCCGGCUGGGCAACAUUCCGAGGGGACCGUCCCCUCGGUAAUGGCGAUUGGGAGCCA has a self-cleavage of 0.0396. Variant GGCCGGCAUGGUCCCAGCCUCCUCGCUGGCGCCGGCUGGGCAACAUUCCGAGGGGACCGUCCCCUCGGUAAUGGCGAUUGGGACGCA has a self-cleavage of 0.326. GGCCGGCAUGGUCCCAGCCUCCUCGCUGGCGCCGGCUGGGCAACAUUCCGAGGGGACCGUCCCCUCGGUAAUGGCGAUUGAGACCCA gave a self-cleavage of 0.182. Variant GGCCGGCAUGGUCCCAGCCUCCUCGCUGGCGCCGGCUGGGCAACAUUCCGAGGGGACCGUCCCCUCGGUAAUGGCGAUUGGCACCCA has a self-cleavage of 0.0302. Variant GGCCGGCAUGGUCCCAGCCUCCUCGCUGGCGCCGGCUGGGCAACAUUCCGAGGGGACCGUCCCCUCGGUAAUGGCGAUUGGUACCCA has a self-cleavage of 0.197. Work on GGCCGGCAUGGUCCCAGCCUCCUCGCUGGCGCCGGCUGGGCAACAUUCCGAGGGGACCGUCCCCUCGGUAAUGGCGAUAGGGACCCA yielded a self-cleavage of 0.095. With GGCCGGCAUGGUCCCAGCCUCCUCGCUGGCGCCGGCUGGGCAACAUUCCGAGGGGACCGUCCCCUCGGUAAUGGCGAAAGGGCCCCA the self-cleavage was 0.151. GGCCGGCAUGGUCCCAGCCUCCUCGCUGGCGCCGGCUGGGCAACAUUCCGAGGGGACCGUCCCCUCGGUAAUGGCGAAAGGGACCCG gave a self-cleavage of 0.752. GGCCGGCAUGGUCCCAGCCUCCUCGCUGGCGCCGGCUGGGCAACAUUCCGAGGGGACCGUCCCCUCGGUAAUGGCGAAAGGGACGCA gave a self-cleavage of 0.997. With GGCCGGCAUGGUCCCAGCCUCCUCGCUGGCGCCGGCUGGGCAACAUUCCGAGGGGACCGUCCCCUCGGUAAUGGCGAAAGGGACCGA the self-cleavage was 0.81. GGCCGGCAUGGUCCCAGCCUCCUCGCUGGCGCCGGCUGGGCAACAUUCCGAGGGGACCGUCCCCUCGGUAAUGGCGAAAGGGACCUA gave a self-cleavage of 1.02. With GGCCGGCAUGGUCCCAGCCUCCUCGCUGGCGCCGGCUGGGCAACAUUCCGAGGGGACCGUCCCCUCGGUAAUGGCGAAAGCGACCCA the self-cleavage was 0.0504.
